Patent US7176283B1, “Protease-activated receptor 3 and uses thereof” (The Regents of the University of California, priority 1996, dated 2007)
Values belong to the substance of their own block, whether it stands above or below them.

Key:
[1] = target: epitope-tagged human PAR3 (FLAG epitope fused to amino acid 17 of PAR3) (human) (UniProt O00254); experiment: antibody binding to the FLAG epitope on the surface of transfected Cos 7 cells
human PAR3 = target: T1, human PAR3 (Homo sapiens, UniProt O00254); experiment: Phosphoinositide hydrolysis in Cos 7 cells transfected with human PAR3; type: cell-based; conditions: Cos 7 cells expressing human PAR3; peptide concentrations up to 100 μM
T1 construct: The human PAR3 cDNA used for the functional studies presented below was cloned from a Lamda gt 10 intestinal cDNA library; expressed in transfected cells; host or cells: Cos 7 cells
T1 sequence (O00254 22-374): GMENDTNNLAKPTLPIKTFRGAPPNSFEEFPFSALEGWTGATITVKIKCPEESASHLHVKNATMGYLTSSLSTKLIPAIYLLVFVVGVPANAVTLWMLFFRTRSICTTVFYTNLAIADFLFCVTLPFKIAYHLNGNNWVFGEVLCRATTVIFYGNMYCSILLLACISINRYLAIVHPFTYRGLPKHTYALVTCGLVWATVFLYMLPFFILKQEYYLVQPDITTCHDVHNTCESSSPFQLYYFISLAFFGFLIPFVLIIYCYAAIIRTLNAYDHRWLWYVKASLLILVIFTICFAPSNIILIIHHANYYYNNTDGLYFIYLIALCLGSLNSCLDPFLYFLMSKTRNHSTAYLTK
Description: PAR3 signaling in Cos 7 cells was also examined. Cos 7 cells were transfected with human PAR1 or PAR3. Cells were then metabolically labelled with ^3H-inositol and phosphoinositide hydrolysis was measured in response to the indicated concentrations of a-thrombin (FIG. 8) or γ-thrombin (FIG. 9) as described by Ishii, et al. and Nanevicz et al. (Ishii, K. et al. (1993) supra; and Nanevicz, T. et al. (1996) J. Biol. Chem. 271:702–706).
Peptides homologous to the tethered domain of PAR3 may be tested as potential agonists of PAR3 activity. Two peptides TFRGAP (SEQ NO:27) and […] (SEQ ID NO:17) were synthesized and tested for their ability to mimic the action of thrombin by causing PAR3 signaling as measured by phosphoinositide hydrolysis. Cos 7 cells expressing human PAR3 were incubated with the peptides at concentrations up to 100 μM.

[2] = target: α-thrombin (Homo sapiens (Human)) (UniProt P00734); experiment: cell-based or functional assay
[3] = target: epitope-tagged human PAR3 (FLAG epitope fused to amino acid 17 of PAR3) (human) (UniProt O00254); experiment: cell-based or functional assay
[4] = system: epitope-tagged human PAR3 bearing the F40A tethered ligand domain mutation
[5] = target: human protease-activated receptor 3 (human) (UniProt O00254); experiment: cell-based or functional assay

Substance: M1 monoclonal antibody (Kodak)
share of M1 antibody binding that was transfection-dependent [1]: > 95%

Substance: TFRGAP [synthetic peptide homologous to the tethered ligand domain of PAR3]
PAR3 signaling as measured by phosphoinositide hydrolysis (agonist activity) (human PAR3): no detectable signaling

Substance: thrombin rendered proteolytically inactive by the active site inhibitor PPACK (enzyme)
45Ca release in Xenopus oocytes [3]: 1 µM

Substance: α-thrombin
PAR3 signaling and PAR3 cleavage by thrombin [4]: ablated PAR3 signaling but not PAR3 cleavage by thrombin

The next lines start with the values.

PAR3 signaling as measured by phosphoinositide hydrolysis (agonist activity) (human PAR3): no detectable signaling
Substance: TFRGAPPNS [synthetic peptide homologous to the tethered ligand domain of PAR3]

shift of the α-thrombin dose response curve for PAR3 signaling (data not shown) [2]: 2 logs
Substance: hirugen (peptide)

EC50, phosphoinositide hydrolysis in Cos 7 cells [5]: 20 nM
Substance: γ-thrombin (enzyme)
